The record followed here is the supplement of paper PMC9732359.

The nature of this series: protein stability index of a GFP-peptide fusion (yeast GPS) (PSI 1-4); higher = more stable; sorted into four equal gates, so the index is relative within each strain. In outline: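 Peptides tiling yeast proteins in 17-residue segments were fused downstream of GFP, with Cherry expressed from the same plasmid. As a pooled library in yeast, mid-log cultures grown in leucine-free medium were sorted into four equal gates by GFP/Cherry fluorescence ratio. Gate plasmids were PCR-amplified and Illumina-sequenced, and barcodes linked reads to strains. Each peptide received a protein stability index equal to the sum of each gate's read frequency times its gate number.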

± gives the uncertainty stated by the source.

Consider PVGACATSVESVDIGVE [FAS2], for which the protein stability index was determined as 2.92 ± 0.13 (doa10∆), 2.9 ± 0.11 (pdr5∆), 2.12 ± 0.085 (san1∆) and 2.86 ± 0.089 (ubr1∆).

As for PVKVSGTIKKIEQFAMR [POP5], the protein stability index reads like this: (doa10∆) 2.54 ± 0.089; (pdr5∆) 2.65 ± 0.058; (san1∆) 2.34 ± 0.082; (ubr1∆) 2.56 ± 0.042.

PVTLAKVIKVLGRTGSR [RPS28A]: the protein stability index turned out to be 1.96 ± 0.083 (doa10∆), 2.59 ± 0.077 (pdr5∆), 2.09 ± 0.11 (san1∆) and 2.5 ± 0.13 (ubr1∆).

For PVYATIGVETGSEPLIQ [PRP28], the protein stability index is, setting by setting: (doa10∆) 2.84 ± 0.066; (pdr5∆) 3.1 ± 0.076; (san1∆) 2.92 ± 0.064; (ubr1∆) 2.86 ± 0.12.

For the sequence PWNDDYPFLLSFLGEAK [YML103C/NUP188], the protein stability index was determined as 1.42 ± 0.047 (doa10∆), 1.6 ± 0.061 (pdr5∆), 1.66 ± 0.088 (san1∆) and 1.98 ± 0.046 (ubr1∆).

With PYDKKKRVVVPQALRVL [RPL16A], the protein stability index runs as follows: (doa10∆) 2.32 ± 0.14; (ubr1∆) 1.35 ± 0.14.

As for QACGLVKNLSLMSCISV [RPB2], the protein stability index runs as follows: (doa10∆) 1.49 ± 0.073; (pdr5∆) 1.75 ± 0.06; (san1∆) 2.44 ± 0.083; (ubr1∆) 2.17 ± 0.075.

On to QAEATEWAEENADNVEW [RPS0A], for which the protein stability index amounted to 2.18 ± 0.11 (doa10∆), 1.8 ± 0.11 (pdr5∆), 2.27 ± 0.083 (san1∆) and 2.41 ± 0.066 (ubr1∆).

For the sequence QALQMKAMDIPIGRHEE [SWP82], the protein stability index stood at 2.86 ± 0.22 (doa10∆), 2.29 ± 0.13 (pdr5∆) and 2.08 ± 0.062 (ubr1∆).

Take QAQAQAQAAQAAQAQAQ [GAL11]: the protein stability index was 2.84 ± 0.092 (doa10∆), 3.02 ± 0.14 (pdr5∆), 2.93 ± 0.066 (san1∆) and 3.04 ± 0.11 (ubr1∆).

Regarding QAQAQAQANNNNNGLPQ [GAL11], the protein stability index was found to be 3.04 ± 0.037 (doa10∆), 3.1 ± 0.035 (pdr5∆), 2.952 ± 0.029 (san1∆) and 3.05 ± 0.033 (ubr1∆).

With QCLRFLKETVIPSLANN [POP6], the protein stability index was 1.49 ± 0.065 (doa10∆), 1.63 ± 0.11 (pdr5∆), 1.92 ± 0.16 (san1∆) and 2.09 ± 0.051 (ubr1∆).

For the sequence QDGGIMGSLINGITLAL [SKI6], the protein stability index came to 3.11 ± 0.075 (doa10∆), 2.58 ± 0.058 (pdr5∆), 2.53 ± 0.057 (san1∆) and 2.66 ± 0.047 (ubr1∆).

Consider QDGVLLVALSNEPAARL [FAS2], for which the protein stability index reads like this: (doa10∆) 1.89 ± 0.063; (pdr5∆) 1.9 ± 0.06; (san1∆) 2.68 ± 0.09; (ubr1∆) 1.46 ± 0.071.

On to QDKDAIRKQPDDIINND [SIR2], for which the protein stability index is, setting by setting: (doa10∆) 2.48 ± 0.089; (pdr5∆) 2.63 ± 0.049; (san1∆) 2.82 ± 0.078; (ubr1∆) 2.89 ± 0.061.

In the case of QDKIELSEEETLLVIRR [SNF2], the protein stability index (doa10∆) was 2.38 ± 0.11, the protein stability index (pdr5∆) was 2.27 ± 0.11, the protein stability index (san1∆) amounted to 2.92 ± 0.072 and the protein stability index (ubr1∆) worked out at 2.98 ± 0.089.

Consider QDRDRFFLRDTLLWNKN [SNF5], for which the protein stability index reads like this: (doa10∆) 2.99 ± 0.056; (pdr5∆) 3.08 ± 0.052; (san1∆) 2.83 ± 0.046; (ubr1∆) 3 ± 0.039.

Regarding QDRHVIFLAERRILPKP [RPS7A], the protein stability index was 2.53 ± 0.23 (doa10∆), 2.93 ± 0.12 (pdr5∆), 2.86 ± 0.27 (san1∆) and 2.73 ± 0.088 (ubr1∆).

QDSIDISIKDNKLVMKS [GAL11]: the protein stability index was 2.5 ± 0.064 (doa10∆), 2.77 ± 0.058 (pdr5∆), 3.21 ± 0.053 (san1∆) and 2.05 ± 0.068 (ubr1∆).

As for QEASKQYTKDEQFYTKD [RPN2], the protein stability index came to 3.41 ± 0.085 (doa10∆), 3.3 ± 0.086 (pdr5∆), 3.19 ± 0.083 (san1∆) and 3.25 ± 0.056 (ubr1∆).

As for QEHNIQDSNVMPGSQIN [SNF2], the protein stability index was determined as 3.11 ± 0.074 (doa10∆), 3.11 ± 0.057 (pdr5∆), 2.68 ± 0.07 (san1∆) and 3.31 ± 0.062 (ubr1∆).

Regarding QEKQEQQEQDKKKKSNH [PRE6], the protein stability index is, setting by setting: (doa10∆) 1.97 ± 0.048; (pdr5∆) 1.81 ± 0.044; (san1∆) 2.55 ± 0.06; (ubr1∆) 1.65 ± 0.04.

As to QEPSASQVKDSVTETES [SRP68], the protein stability index came out at 3.27 ± 0.13 (doa10∆), 2.93 ± 0.18 (pdr5∆), 3.14 ± 0.18 (san1∆) and 2.81 ± 0.19 (ubr1∆).

Consider QESLVKLFTTNELMRWP [RPN5], for which the protein stability index is, setting by setting: (doa10∆) 2.96 ± 0.21; (pdr5∆) 3.72 ± 0.3; (san1∆) 3.15 ± 0.12; (ubr1∆) 2.91 ± 0.13.

In the case of QEVTNEAPFLTSGTSSE [GAL11], the protein stability index reads like this: (doa10∆) 3.35 ± 0.079; (pdr5∆) 3.35 ± 0.08; (san1∆) 3.42 ± 0.067; (ubr1∆) 3.13 ± 0.073.

With QFKSKEVEKAHPIRLYT [PRP8], the protein stability index (doa10∆) turned out to be 3.17 ± 0.085, the protein stability index (pdr5∆) was 2.88 ± 0.056, the protein stability index (san1∆) was found to be 2.71 ± 0.063 and the protein stability index (ubr1∆) was determined as 2.86 ± 0.06.
